From publication PMC6123778, “Structural rearrangements in the C-terminal domain homolog of Orange Carotenoid Protein are crucial for carotenoid transfer” (Communications Biology, 2018)

What was measured:
[1] = target: Anabaena (Nostoc) PCC 7120 apo-CTDH (carotenoid-free C-terminal domain homolog of Orange Carotenoid Protein) (Anabaena (Nostoc) PCC 7120); test: native gel or EMSA; purified apo-AnaCTDH on 15% native polyacrylamide gel, pH 8 (25 mM Tris-HCl, 192 mM glycine), non-reducing
[2] = target: Anabaena (Nostoc) PCC 7120 apo-CTDH (carotenoid-free C-terminal domain homolog of Orange Carotenoid Protein) (Anabaena (Nostoc) PCC 7120); test: SEC; apo-AnaCTDH treated with 2 M urea overnight, preparative column, 40 mM Tris-HCl pH 8 with 2 M urea
[3] = target: T1, AnaCTDH (CTDH, C-terminal domain homolog of OCP, clade 2) (Nostoc sp. PCC 7120 = FACHB-418, UniProt A0ACD6B996, C103F); test: absorbance spectra after uptake from canthaxanthin-containing E. coli membranes; format: binding; settings: 12 µM apo-dimer, membranes with 48 µM canthaxanthin, 33 °C, 1 h, darkness
T1 construct: gene all4940; C-terminal His-tag (plasmid pCDF-CTDHAna-C103F), expressed in E. coli; dimer about 34 kDa; the wild type was crystallised in apo form

[4] = target: T2, AnaCTDH (CTDH, C-terminal domain homolog of OCP, clade 2) (Nostoc sp. PCC 7120 = FACHB-418, UniProt A0ACD6B996, C103F/DEL126-136); test: as above; format: binding; settings: 12 µM apo-dimer, membranes with 48 µM canthaxanthin, 33 °C, 1 h, darkness; C-terminal tail deleted
T2 construct: gene all4940; C-terminal His-tag (plasmid pCDF-CTDHAna-C103F), expressed in E. coli; dimer about 34 kDa; the wild type was crystallised in apo form

[5] = target: the molecule itself; test: SAXS; batch mode, 270 µM per monomer, 20 mM Tris-HCl pH 7.6, 150 mM NaCl, 0.1 mM EDTA, 2 mM dithiothreitol, 3% glycerol

T1 sequence (A0ACD6B996 entry or part of it C103F): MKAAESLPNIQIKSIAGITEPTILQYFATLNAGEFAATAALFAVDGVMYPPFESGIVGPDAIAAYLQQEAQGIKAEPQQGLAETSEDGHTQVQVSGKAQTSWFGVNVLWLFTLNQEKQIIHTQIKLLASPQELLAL
T2 sequence (A0ACD6B996 entry or part of it C103F/DEL126-136): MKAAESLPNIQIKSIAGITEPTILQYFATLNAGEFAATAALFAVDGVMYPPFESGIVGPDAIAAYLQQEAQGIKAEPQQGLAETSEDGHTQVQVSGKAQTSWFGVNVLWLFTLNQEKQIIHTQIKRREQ

Anabaena (Nostoc) PCC 7120 apo-CTDH (carotenoid-free C-terminal domain homolog of Orange Carotenoid Protein) (natural protein)
stoichiometry N [1]: 2
stoichiometry N [2]: 2

CC1=C(/C=C/C(C)=C/C=C/C(C)=C/C=C/C=C(C)/C=C/C=C(C)/C=C/C2=C(C)C(=O)CCC2(C)C)C(C)(C)CCC1=O [canthaxanthin]
% holo-protein formed [3]: 100%
% holo-protein formed [4]: 20(±5) %

B1: Apo-CTD from Synechocystis OCP (residues 165-317) (domain or fragment, Synechocystis 6803, UniProt P74102 165-317, looked up)
chain: AGKDGKRIAEPVVPPQDTASRTKVSIEGVTNATVLNYMDNLNANDFDTLIELFTSDGALQPPFQRPIVGKENVLRFFREECQNLKLIPERGVTEPAEDGFTQIKVTGKVQTPWFGGNVGMNIAWRFLLNPEGKIFFVAIDLLASPKELLNFAR
notes: C-terminal domain of the Orange Carotenoid Protein of Synechocystis 6803, residues 165-317 (of 317); 18.7 kDa construct with an uncleavable N-terminal hexahistidine tag; carotenoid-free; The SAXS modelling counts 23 flexible N-terminal residues (tag and linker included) and 12 C-terminal ones; also called apo-OCP-CTD; CTD-OCP; not shown: His6, N-terminal, kept
stoichiometry N [5]: 2
